# Test results as given in the nanobody polyreactivity screen of Harvey et al. (2022).
# Assay: yeast display, Sf9 membrane polyspecificity reagent, FACS + sequencing; frameworks hold sequencing errors
# Method in brief: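 Genes from sorted yeast were amplified by colony PCR, read by MiSeq 2 × 250 sequencing and filtered on CDR length. These cells carried a synthetic nanobody library in Saccharomyces cerevisiae BJ5465 and were sorted by FACS into low and high (top ~1%) gates on anti-HA and streptavidin fluorescence. Polyreactivity is labelled according to the gate of origin.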
row,Sequence,polyreactivity (PSR sort gate)
1,QVQLVESGGGLVQAGGSLRLSCAASGFTVSYNTMGWYRQAPGKERELVAAISARGTSTYYADSVKGRFTISRDNAKNTVYLQMNSLKPEDTAVYYCAAAYRIGSGYWGQGTQVTVSS,high polyreactivity
2,QVQLVESGGGLVQAGGSLRLSCAASGRTFKLYAMGWYRQAPGKESELVAAISRSGGSTYYADSVKGRFTISRDNAKNTVYLQMKSLKPEDTAVYYCNRRQGYHGDYDYWGQGTQVTVSS,high polyreactivity
3,QVQLVESGGGLVQAGGSLRLSSAASGSTYFTYAMGWYRQAPGKERELVAAISWSGGTTYYADSVKGRFTISRDNAKNTVYLQMNSLKPEDTAVYYCASARDGILKANDYWGQGTQVTVSS,low polyreactivity
4,QVQLVESGGGLVQAGGSLRLSCAASGSIFNRYSMGWYRQEPGKERELVASIRGTGSTYYADSVKGRFTISRDNAKNTVYLQMNSLKPEDTAVDYCAARPGYLYSKYNYWGQGTQVTVSS,high polyreactivity
5,QVQLVESGGGLVQAGGSLRLSCAASGRPFKPYAMGWYRPAPGKERELVAVISSTGSTKYADSVKGRFTISRDNAKNTVYLQMNSLKPEDTAVYYCNAGSLYSDRWVKRKYDYSGQGTQVTVSS,high polyreactivity
6,QVQLVESGGGLVQAGGSLRLSCAASGSTFVWNAMGWYRQAPGKERELVAAITNDGRTNYADSVKGRFTISRDNAKNTVYLQMNSLKPEDTAVYYCNADGFNSYWWNYYWGQGTQVTVSS,low polyreactivity
7,QVQLVESGGCLVQAGGSLRLSCAASGRIFPGYAMGWYRQAPGKEREFVAAITASGGTTYYADSVKGRFTISRDNAKNTVYLQMNSLKPEDTAVYYCAKYRYTVAGYNYWGQGTQVTVSS,high polyreactivity
8,QVQLVESGGGLVQAGGSLRLSCAASGRILPRNSMGWSRQAPGKERELVAGISSDGSTKYADSVKGRFTISRDNAKNTVYLQMNSLKPEETAVYYCAADVVYDPNLYGYWGQGTQVTVSS,low polyreactivity
9,QLQLVESGRGLVQAGGSLRLSCAASVRTFTCYTMGSYRQAPGKEREFVAAIRKSGGSTYYADSVKGRFTISRDNAKNTVYLQMNSLKPEDTAVYYCAAERLYGYWKYIGYDWGQGTQVTVSS,high polyreactivity
10,QVQLVESGGGLVQAGGSLRLSCAASGIIFAIYAMGWYRQAPGKESELVAAITWRGGSTYYADSVKGRFTISRDNAKNTVYLQRNSLKPEDTAVYYCDAVTKSLYGYDYWGQGSQVTVSS,low polyreactivity
11,QVQLVESGGGLVQAGGSLRLSCAASGRTIEHSAMGWYRQAPGKERELVAAINSSDGGTYYADSVKGRFTISRDNPKNTVYLQMNSLKPEDTAVYYCAAAEFGSVPGYEMDYWGHGTQVTVSS,low polyreactivity
12,QVQLVESGGGLVQAGGSLRLSCAASGRTLFHYAMGWYRQAPGKERELVAAIRNSDGSTYYADSVKGRFTISRDNAKNSVYLQMNSLKPEDTGDYNCAAKYKYGTYNYWGQGSQVTVSS,high polyreactivity
13,QVQLVESGGGLVQAGGSLRLSCAASGSTFVGYAMGWYRQAPGKERELVAHISYSGGSTYYADSVKGRFTISCDNAKNTVYLQMNSLKPEDTAVYYCAAEWSRHYYYAPRYDYWGQGTQVTVSS,low polyreactivity
14,QVQLVESGGGLVQAGGSIRLTCAASGRIFYGNAMGCYRQAPGKERELVAAISSGTSTNYADSVKGRFTISRDNAKTTVYLQMNSLKPEDTAVYYCAAGSYSRYLYSLYFDFDYWGQGTQVTVSS,low polyreactivity
15,QVQLVESGGGLVQAGGSLRLSCASSGSIFYPYAMGWYRPAPGKERELVAAISSGGTTYYADSVKGRFTISRDNAKNTVYLQMNSLKPEDTAVYYCAAGFYLRAVWMDYWGQGTQVTVSS,high polyreactivity
16,QVQLVESGGGLVQAGGSLRLSCAASGSILDSNAMGWYRQAPGKERELVAAITSGGSTYYADSVKGRFTISRDNAKNTVYLQKNSLKPEDTAVYYCDTPVASVTGYDYWGQGTQVTVSS,low polyreactivity
17,QVQLVDSGGGLVQAGGTLRLSCASSGSTFYYYAMGWYRQAPGKERELVAGITSGGSTNYADSVKGRFTISRDNAKNTVKLLMNSLKPEDTADYYCNARYRKYRYRYDYWGQGTQVSVSS,low polyreactivity
18,QVQLVESGGGLVQAGGSLRLSCAASGFIFDWNTMGWYRQAPGKERELVAAITESSGSTYYADSVKGRFTISRDNAKNTVYLQMNSLKPEDTAVYYCAAELDVYVSIGSRFHFDYWGQGTQVTVSS,low polyreactivity
19,QFQLVDSGGGLVQAGGSLRLSCAASGRTFWFYGMGWYRQAPGKEREFVARISGSGGSKYYADSVKGRFTITRDNAKNTVYFQMNSLKPEDTAVYYCAKDNRYPYPSGLDYWGQGTQVTVSS,high polyreactivity
20,QVQLVESGGGLVQAGGSLRLSCAASGSTFLGYVMGWYRQAPGKEREFVAAITWSVGSTYYADSVKGRFTISRDNAKNTVYLQMNSLKPEDTAVYYCAVRWVYANIYPDMEYWGQGTKVTVSS,low polyreactivity
21,QVQLVESGGGLVQAGGSLRLRCAASGFTFTAYAMGWYRQAPGKERELVAAITWRDGITYYADSVKGRFTISRDNAKNTVYLQMNSLKPEDTADYYCAASWSTEYYWGQGTQVTVSS,high polyreactivity
22,QVQLVESGGGLVQAGGSLRLSCAASGFIFSDYAMGWYRQAPGKERELVAGISDSGGDTYYADSVKGRFTISRDNAKYTVYFQMYSLKPDDTAVYYCAADVELWVFRGQQYDYWGQGTQVTVSS,low polyreactivity

row,Sequence,polyreactivity (PSR sort gate)
1,QVQLVESGGGLVQAGGSLRLSCAASGFTFSAYTMGWYRQAPGKESELVAAINWSGANTYYADSVKGRFTISRDNAKNTVYLQMNSLKPEDTAVYFCNAEDDYTYDRSFGGYKYDYWGQGTQVTVSS,low polyreactivity
2,QVQLEESGGGLDQAGGSLRLSCAASGSIFYYYAMGWYRQAPGKERELVAVIDFSGASTSYAVSVKGRFTISRDNAKITVYLQMNSLKPEDTAVYYCAADRRSKYDYWGQGTQVTVSS,low polyreactivity
3,QVQLVESGGGLVQAGGSLRLSCAASGSTFDVYAMGWYIQAPGKERELVASIRWSGGSTNYADSVKGRFTISRDNAKNTVYLQMNSLKPEDTAVYYCNADVGTGFRPGQYDYWGQGTQVTLSS,low polyreactivity
4,QVQLQESGGGLVQACGSLRLSCAASGNISPQLYMGWYRQAPGKEREFVADIAEGSTTYYAESVKGRFTISRDDAKNTVYLHMISLKSEDTAVYYCAARYENAESFYYWGQGSQVTVSS,high polyreactivity
5,QVQLVESGGGLVQAGGSLRLSCAASGRTFPLYAMGWYRQAPGKERELVARINRGGSTYYADSVKGRFTISRDNAKNTVYLQMNSLKPEDTAVYYCNARHTWHQTYDYWGQGTQVTVSS,low polyreactivity
6,QVQLVESGGGLVQAGGSLRLSCAASGSIFRINAMGWYRQAPGKERELVAAISWSGGSTYYADSVKGRFTISRDNAKNTVYLQMNSLKPEDTAVYYCAAVVSKSSFDYWGQGTQVTVSS,low polyreactivity
7,QVQLVESGGGLFQAGGSLRLSCAASGRTLRRNALGWYRQAPWKERELVAAISTGGGSTYYADSVKGRFTISRDYAKKTVYLQINSLNPEDSAVYYCAAVYSQSTKRYELYYWGQGTQVTVSS,high polyreactivity
8,QVQLVDSGVGLVQAGGSLRLSCAASGNTFSSYTMGWYIQAPGKERELVAGISRTGTSTYYADSVKGRFTISRDNAKNSVYLQMNSLKPEDTAVYYCAARTGWWYYWGQGTQVSVSS,high polyreactivity
9,QVQLVESGGGLVQAGGSLRLSCADSGNTFYVDTMGWYREAPGKESELVAAIYSTGDRTYYADSLKGRFTISRYKAKNTVYLQMNRLKPEDTAVYYWAARLYRGSLGYYFWGQVTQVTVSS,high polyreactivity
10,QVQLVESGGGLVQAGGSLRLSCAASGFTLTRNAMGCYRQAPGKERELVAAISWSGGTTYYADSVKGRFTISRDNAKNTVYLQMNSLKPEDTAVYYCNTASWRAQYYYWGQGTQVTVSS,high polyreactivity
11,QVQLVESGGGLVQAGGSLRLSCAASGSIFPANAMGWYRQAPGKERELVAAINRDGITNYADSVKGRFTISRDNAKNTVYLQMNSLKPEDTAVYYCAAEFAWQWWEYGYWGQGTQVTVSS,low polyreactivity
12,QVQLVESGGVLVQAGGSLRLSCAASGRTFFRYTMGWYRPAPGKERELVAAISRSDGSTYYADSVKGRFTISRDNAKNTVYLQMNSLKPEDTAVYYCAKSLPSGYYYWGQGTQVTVSS,low polyreactivity
13,QVQLVESGGGLVQAGGSLRLSCAASGRTLGRYAMGWYRQAPGKERELVAAINVGGGTTHYADSVKGRFTISRDNAKNTVYLQMNSLKPEDTAVYYCAAYRYTYGDRHAYDYWGQGTQVTVSS,low polyreactivity
14,QGQLVESGGGLVQAGGSLRLSCAASGRIFYIYFMGWYRQAPGKEREFVAAISQSGGSTYYADSVKGRFTISRDNAKNTVYLQMNSLKPEDTAVYYCAADRINYQHGYGYWGHGTQVTVSS,low polyreactivity
15,QVQIVESGGGLVQAGGSLRLSCAASRIIFSTYAMGWYRQAPGKEREFVAAITSTGSTNYADSVKGRFTISRDNEKNTVYLQMNSLKPEDTAVYYCAARYAGPSPTDTGHDYWGQGTQVTVSS,low polyreactivity
16,QVQLVESGGGLVQAGGSLRLSCAASGLIFSSNAMGWYRQAPGKERELVAAISSRGGRTYYADSVKGRFTISRDNAKNTVYLQMNSLKPEDTAVYYCAKYFTEVSRHTYDYWGQVTQVTVSS,high polyreactivity
17,QVQLVESGGGLVQAGGSLRLSCAASGRIFGFYAMGCYRQAPGKERELVAVITYRDGRTYYADSVKGRFTISRDNEKNTVYLQMNSLKPEDTAVYYCARGYQGRLKYESWGQGTQVTVSS,low polyreactivity
18,QVQLVESGGGLVQAGGSLRLSCAASGGTFLGNAMGWYRPAPGKERELVADITSGGSTNYADSVKGRFTISRDNAKNTVYLQMNSLKPEDTAVYYCNAEYSTSTVWEYDYWGQGTQVTVSS,low polyreactivity
19,QVQLVDSGGGFVQAGGSLRLSCAASGFIFRSYAMRWYRTAPGKERELVAAITKSGGRTYYADSVKGRFTISRDNAKNTVYLQMNSLKPEDTAVYYCAADGAYGGYDYWGQGTLVTVSS,low polyreactivity
20,QVQLVESGGGLVHAGGSLRLSCAASGFTFGDNAMGSYRQAPGKERELVADIDSDGSTYYADSVKGRFTISRDNAKNTVYLQMNSLKPEDTAVYYCAKRQAFKQAPYEYWGQCTQVTVSS,low polyreactivity
21,QVQLVESGGGLLQAGGSLRLSCAASGIFGRYAMGWYRQAPGKERELVAGISWSGVRTYYADSVKGRFTISRDNAKNTVYLQINSLKPEDTSVYYCPARPWNDGYYVGRFHMDYWGQGTQVTVSS,low polyreactivity
